The RNAGym collection of RNA variant scans (doi:10.1021/acssynbio.7b00057)

B1: Pistol ribozyme (parent)
chain: GGGUCGUUGUUCCAUAAUCGCGUGGAUAUGGCACGCAAGUUUCUACCGGGCACCGUAAAUGUCCGACUGGAGCCGUUCGGGCGGCUAUAAACAGACCUCAGGCCCGAAGCGUGGCGGCACCUGCCGCCGGUGGUAAAAAAGAUCGGAAGAGCACACGUCU

Variants of: B1
Experiment: aptazyme ON/OFF ratio, guanine; higher = stronger switching; co-transcriptional cleavage with and without guanine

Variant | aptazyme ON/OFF ratio
U7G U8G G9C U10A C12U C13A | 1.01
U7G U8C U10G U11G C12U C13A | 1.26
U10C U11A C12U C13A | 1.38
U8C U11G C12G C13G | 1.19
U7G U8G G9A U11C C12U C13U | 1.02
U7A G9C C12U | 1.1
U7A G9U U10G C12U C13U | 1.87
U7C U8C G9C U10A U11C C12G C13U | 1.2
U7G U8A G9U U11C C12A C13G | 1.07
U8G G9C U10C U11A C12A C13G | 1.07
U7C U8C G9A U10C U11G C12G C13A | 1.23
U7G U8A U10G U11G C12G C13A | 1.15
U7A U10A U11G C12G C13U | 1.16
U7C U8A G9U C13A | 1.16
U7A U8A U10G U11C C12U C13A | 1.42
U8G U10A U11C C12G C13G | 1.33
U7G U8C G9U U10G C12G C13G | 1.23
U7G U8A G9U U10C U11C C13A | 1.03
U7C U8G U11A C12U C13G | 1.09
U7C U8G G9U U10C U11A C12A C13A | 1.26
U7C U8C G9U U10A U11C C13A | 1.15

Variant | aptazyme ON/OFF ratio
U7G U8A U10A U11C C13G | 1.06
U7C U8C U10A U11A C12U C13U | 1.16
U7G U8G G9A U10C | 3.59
U7A G9U C13U | 1.35
U7C U8C G9A U10G U11C C12A C13U | 1.17
U7C U8C U11G C12U C13A | 1.14
U7C G9A U11G C13A | 1.46
U7A U8G G9C U11G | 1.57
U7A U8A G9A U10G C12A | 1.18
U8C U10G U11G C12G C13U | 1.26
U8A G9C U10C C12G C13U | 1.05
U7C U8A G9C U10A C12U C13G | 1.11
U7C U8A G9C U10A C12U C13A | 1.09
U8A G9U U10G C12U C13A | 1.31
U7A U8G U10C U11G C13A | 1.23
U7C U8C G9U U10C U11G C12G C13A | 1.14
U7C U8C G9A U10A C12A C13A | 1.19
U7C G9C U10G C12A C13A | 1.15
U7G U8C G9C U11C C12U C13A | 1.22
U7A U8A U10A U11C C12A C13U | 1.11
U7C G9U U11A C12U | 1.39

Variant | aptazyme ON/OFF ratio
U7C U10C U11C C12A C13U | 1.2
U7C U8G G9U U10C U11G C12U | 1.28
U7G G9U U10C U11G C13G | 1.22
U7A U8C G9U U10A C13A | 1.18
U7A U8G G9U U10G U11A C12G C13A | 1.13
U7C U8A U10G U11G | 1.24
U7C U8G G9A U10C U11A C12A | 1.15
U7C U8C U10A C12U C13G | 1.06
U7A U8C U11G C13A | 1.12
U7G U8C G9A U11A C12A | 1.2
U7A U8C G9C U10C C12G C13U | 1.08
G9U U10C U11A C12G | 1.76
U7G U8G G9U U11C C12U C13A | 1.35
U7A U8A G9A U10C C12A C13A | 1.13
U7C U8A G9U U10C U11G | 1.06
U7A U8G G9C U10A U11C C12G C13U | 1.26
U7A U8G G9A U10G U11A | 1.06
U7A G9U U10A U11C C12G C13A | 1.09
U7C G9A U10A U11C C12G C13U | 1.12
U7G G9U U11G C12A C13G | 1.2
U8G G9C U10C U11G C12G C13U | 1.08

Variant | aptazyme ON/OFF ratio
U7C U8G U11G C12A | 1.29
U8G G9A U10C U11C C12A C13U | 1.07
U7A G9A U10G U11G C13G | 1.25
U7A U8G U10G C12U C13G | 1.28
U7G U8G G9A U10A U11C C13A | 1.08
U7G U8C G9U U11A C12A C13A | 1.28
U7A U8C U10A U11G C12U C13G | 1.16
U7A G9A U10G C13U | 1.28
U8A G9A U10A U11C C13G | 1.04
U8A G9U U10C U11A C12U C13G | 1.1
U7A G9C U10G U11G C12G C13U | 1.16
U7C G9U U10A C13A | 1.18
U7A U8G G9A U10G U11G C12G C13U | 1.53
U8A U10G U11A C12A C13A | 1.3
U7G U8C G9U U10A U11C C12A C13U | 1.59
U7C U8A G9A U11C C12G C13A | 1.16
U8G G9U C12G C13U | 1.31
U7C U8C G9A U10G U11A C12G | 1.17
U7C U8G G9U U10A C12A C13U | 1.22
U8A G9U C12G C13U | 1.26
